Activity (fidelity index) data for one substance are collected here from patent US20130115676.

For this series, the system named is T1, SapI (Saccharopolyspora sp.).
T1 sequence: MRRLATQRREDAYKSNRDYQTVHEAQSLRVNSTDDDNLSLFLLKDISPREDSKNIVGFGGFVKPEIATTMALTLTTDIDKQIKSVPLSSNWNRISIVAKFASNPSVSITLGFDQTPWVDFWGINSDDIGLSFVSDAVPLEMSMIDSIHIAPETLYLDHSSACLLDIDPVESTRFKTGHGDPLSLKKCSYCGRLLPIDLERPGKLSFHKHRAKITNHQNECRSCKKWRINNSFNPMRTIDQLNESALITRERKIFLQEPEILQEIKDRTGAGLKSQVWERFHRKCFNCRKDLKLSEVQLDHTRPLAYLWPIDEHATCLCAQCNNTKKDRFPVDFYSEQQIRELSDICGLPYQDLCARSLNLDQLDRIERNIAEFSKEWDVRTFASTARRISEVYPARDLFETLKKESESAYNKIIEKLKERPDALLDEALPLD
The series can be described thus: cleavage_in_vitro. The note with it: NEB4, 10 mM Mg acetate, 37 C.

On to lambda DNA, for which the activity (fidelity index) is 16.
